Stoichiometry N data for one substance are collected here from publication PMC7458321.

In this experiment the target is GST F52(pBPa). The experiment in a line: cross-linking; photocrosslinking through pBPa in whole N. meningitidis cells, UV light for the indicated times up to 2 hours; bacterial extracts on Western blot with anti-GST mAb. Background: Immunoblotting shows a protein as a band on a membrane.

Sequence of GST F52(pBPa) (P08515 2-218): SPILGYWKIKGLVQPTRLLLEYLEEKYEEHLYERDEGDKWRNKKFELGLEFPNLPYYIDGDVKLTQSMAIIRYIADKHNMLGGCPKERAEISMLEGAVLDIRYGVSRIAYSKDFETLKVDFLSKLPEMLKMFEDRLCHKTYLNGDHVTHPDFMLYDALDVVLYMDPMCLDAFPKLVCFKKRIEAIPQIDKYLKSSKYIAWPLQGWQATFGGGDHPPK

Take GST F52(pBPa) (enzyme): the stoichiometry N (commonly a count of units in the complex or per binding partner) was found to be 2.
